Test results taken from article PMC10053325.

Biological target: T1, GST-SMAD4^R361H, Q13485
T1 chain: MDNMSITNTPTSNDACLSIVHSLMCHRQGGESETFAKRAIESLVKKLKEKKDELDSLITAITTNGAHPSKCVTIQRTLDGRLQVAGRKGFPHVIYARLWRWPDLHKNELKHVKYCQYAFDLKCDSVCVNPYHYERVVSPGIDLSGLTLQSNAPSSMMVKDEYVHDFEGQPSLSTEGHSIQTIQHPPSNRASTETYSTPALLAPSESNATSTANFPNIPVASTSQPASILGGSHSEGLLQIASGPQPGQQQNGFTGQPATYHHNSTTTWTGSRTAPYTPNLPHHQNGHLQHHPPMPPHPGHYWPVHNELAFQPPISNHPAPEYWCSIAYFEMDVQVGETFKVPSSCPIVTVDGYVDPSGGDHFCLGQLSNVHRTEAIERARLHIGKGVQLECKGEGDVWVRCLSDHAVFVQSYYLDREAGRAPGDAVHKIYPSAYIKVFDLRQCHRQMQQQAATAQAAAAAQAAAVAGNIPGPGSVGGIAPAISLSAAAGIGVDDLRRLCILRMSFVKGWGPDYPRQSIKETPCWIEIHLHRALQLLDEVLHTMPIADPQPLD
Assay: pull-down
Conditions: remark: other sources report otherwise

- EC50 of Go-6983 in enhancing the complex: 8.9 µM
- EC50 of Ro-31-8220 in enhancing the complex: 2.1 µM
B1: Venus-flag-SMAD3, P84022 1-425 (natural protein)
chain: MSSILPFTPPIVKRLLGWKKGEQNGQEEKWCEKAVKSLVKKLKKTGQLDELEKAITTQNVNTKCITIPRSLDGRLQVSHRKGLPHVIYCRLWRWPDLHSHHELRAMELCEFAFNMKKDEVCVNPYHYQRVETPVLPPVLVPRHTEIPAEFPPLDDYSHSIPENTNFPAGIEPQSNIPETPPPGYLSEDGETSDHQMNHSMDAGSPNLSPNPMSPAHNNLDLQPVTYCEPAFWCSISYYELNQRVGETFHASQPSMTVDGFTDPSNSERFCLGLLSNVNRNAAVELTRRHIGRGVRLYYIGGEVFAECLSDSAIFVQSPNCNQRYGWHPATVCKIPPGCNLKIFNNQEFAALLAQSVNQGFEAVYQLTRMCTIRMSFVKGWGAEYRRQTVTSTPCWIELHLNGPLQWLDKVLTQMGSPSIRCSSVS
